Test results as given in article PMC3790809 (2013).

What was measured:
untagged YsaL (YE3555) [1] = test: SPR; refolded YsaN
untagged YsaL (YE3555) [2] = test: SPR
untagged YsaL (YE3555) [3] = test: SPR; remark: listed apart in the source
untagged YsaL (YE3555) [4] = test: SPR; remark: listed apart in the source

B1: YsaNflr-His (full length YsaN, refolded) (enzyme)
chain: MNLFDSCAHPSRIHGCLLEAPLHGVFIGEICLIERDLCQPEVIAKAQVVGFKEGQTILSLIGRAQGLTREVVIRPTGQPFVFEMGEHLAGKIYNAAGEEVGVLSNATASSEPLFTTLCRVDNPPVSVNLRRPVTTPLVTGVRAIDGLLTCGQGQRMGIFAAAGSGKTSLMSMIMNHAVADICVIALIGERGREVTEFIHELQTSPRAAQTILVYATSDSPAVERCNAALLATAMAEYFRDQGKDVLLFVDSMTRYARALRDVALAAGELPARRGYPASVFEQLPLLLERPGALQHGSITAFYTVLLESEEESDPIGDEIRSIIDGHIYLSAQLAGRGHYPAIDILHSISRVFSKVTTPQHRQDAAKTRDMLGRLAQIQLYLDLGEYQRGENTDNDHALDNRDVIEGFLQQAMEEPGEFSTTLNQLRELAN
Untagged YsaL (YE3555) [1]
  Kd: 42 nM

B2: YsaNΔ(411–430)-His (domain or fragment)
chain: MNLFDSCAHPSRIHGCLLEAPLHGVFIGEICLIERDLCQPEVIAKAQVVGFKEGQTILSLIGRAQGLTREVVIRPTGQPFVFEMGEHLAGKIYNAAGEEVGVLSNATASSEPLFTTLCRVDNPPVSVNLRRPVTTPLVTGVRAIDGLLTCGQGQRMGIFAAAGSGKTSLMSMIMNHAVADICVIALIGERGREVTEFIHELQTSPRAAQTILVYATSDSPAVERCNAALLATAMAEYFRDQGKDVLLFVDSMTRYARALRDVALAAGELPARRGYPASVFEQLPLLLERPGALQHGSITAFYTVLLESEEESDPIGDEIRSIIDGHIYLSAQLAGRGHYPAIDILHSISRVFSKVTTPQHRQDAAKTRDMLGRLAQIQLYLDLGEYQRGENTDNDHALDNRDVIEGFLQQ
Untagged YsaL (YE3555) [2]
  Kd: 260 nM

B3: YsaNΔ(426–430)-His (domain or fragment)
chain: MNLFDSCAHPSRIHGCLLEAPLHGVFIGEICLIERDLCQPEVIAKAQVVGFKEGQTILSLIGRAQGLTREVVIRPTGQPFVFEMGEHLAGKIYNAAGEEVGVLSNATASSEPLFTTLCRVDNPPVSVNLRRPVTTPLVTGVRAIDGLLTCGQGQRMGIFAAAGSGKTSLMSMIMNHAVADICVIALIGERGREVTEFIHELQTSPRAAQTILVYATSDSPAVERCNAALLATAMAEYFRDQGKDVLLFVDSMTRYARALRDVALAAGELPARRGYPASVFEQLPLLLERPGALQHGSITAFYTVLLESEEESDPIGDEIRSIIDGHIYLSAQLAGRGHYPAIDILHSISRVFSKVTTPQHRQDAAKTRDMLGRLAQIQLYLDLGEYQRGENTDNDHALDNRDVIEGFLQQAMEEPGEFSTTLNQL
Untagged YsaL (YE3555) [3]
  Kd: 114 nM

B4: YsaNΔ(1–5)-His (domain or fragment)
chain: SCAHPSRIHGCLLEAPLHGVFIGEICLIERDLCQPEVIAKAQVVGFKEGQTILSLIGRAQGLTREVVIRPTGQPFVFEMGEHLAGKIYNAAGEEVGVLSNATASSEPLFTTLCRVDNPPVSVNLRRPVTTPLVTGVRAIDGLLTCGQGQRMGIFAAAGSGKTSLMSMIMNHAVADICVIALIGERGREVTEFIHELQTSPRAAQTILVYATSDSPAVERCNAALLATAMAEYFRDQGKDVLLFVDSMTRYARALRDVALAAGELPARRGYPASVFEQLPLLLERPGALQHGSITAFYTVLLESEEESDPIGDEIRSIIDGHIYLSAQLAGRGHYPAIDILHSISRVFSKVTTPQHRQDAAKTRDMLGRLAQIQLYLDLGEYQRGENTDNDHALDNRDVIEGFLQQAMEEPGEFSTTLNQLRELAN
Untagged YsaL (YE3555) [4]
  Kd: 500000 nM
